These results are taken from patent US20230213519A1 (4TEEN4 PHARMACEUTICALS, published 2023).

No end group written: not given here. *: point of attachment. Biotin = O=C1N[C@H]2[C@H](CS[C@H]2CCCCC(=O)*)N1

In assay [1] the target is T1, epitope mapping peptide #5 (human).
T1 peptide: Biotin-AFNFDQETVINPETGE
Briefly: labelled AK1967 on biotinylated peptide #5 captured on avidin plate, chemiluminescence. Here is the method:
(§1) The plates were filled with 200 μl of labelled and diluted detection antibody (tracer) and incubated for 4 h at room temperature. Unbound tracer was removed by washing 4 times with 350 μl washing solution (20 mM PBS, pH 7.4, 0.1% Triton X-100). Well-bound chemiluminescence was measured by using the Centro LB 960 luminometer (Berthold Technologies GmbH & Co. KG).

The target in assay [2] is T2, epitope mapping peptide #15 (human, not fully specified (C-terminus)).
T2 peptide: VINPETGEQIQSWYK(Biotin)
The experiment in a line: labelled AK1967 on biotinylated peptide #15 captured on avidin plate, chemiluminescence. How it is done: as §1

Assay [3] concerns the target T3, epitope mapping peptide #12 (human, not fully specified (C-terminus)).
T3 peptide: PETGEQIQSWYK(Biotin)
The experiment in a line: labelled AK1967 on biotinylated peptide captured on avidin plate, chemiluminescence. How it is done: as §1

The target of assay [4] is T4, epitope mapping peptide #13 (human, not fully specified (C-terminus)).
T4 peptide: NPETGEQIQSWYK(Biotin)
The description is as above. How it is done: as §1

Assay [5] concerns the target T5, epitope mapping peptide #7 (human).
T5 peptide: Biotin-AFNFDQETVINPET
Described as above. Here is the method: as §1

Assay [6] has as its target T6, epitope mapping peptide #8 (human).
T6 peptide: Biotin-AFNFDQETVINPE
The description is as above. How it is done:
as §1

Assay [7] has as its target T7, epitope mapping peptide #9 (human).
T7 peptide: Biotin-AFNFDQETVINP
The description is as above. How it is done: as §1

Assay [8] addresses T8, epitope mapping peptide #11 (human, not fully specified (C-terminus)).
T8 peptide: ETGEQIQSWYK(Biotin)
The assay is described as above. How it is done: as §1

For assay [9], the target named is T9, epitope mapping peptide #10 (human).
T9 construct: also called bio-AFNFDQETVIN
T9 peptide: Biotin-AFNFDQETVIN
The description is as above. How it is done: as §1

Assay [10] deals with T10, epitope mapping peptide #14 (human, not fully specified (C-terminus)).
T10 peptide: INPETGEQIQSWYK(Biotin)
The experiment in a line: labelled AK1967 on biotinylated peptide #14 captured on avidin plate, chemiluminescence. How it is done: as §1

The target of assay [11] is T11, epitope mapping peptide #1 (human, biotinylated at the N- or C-terminus (which end is in the drawing only)).
T11 peptide: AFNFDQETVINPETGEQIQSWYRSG
The experiment in a line: labelled AK1967 on biotinylated peptide #1 captured on avidin plate, chemiluminescence. Here is the method:
as §1

In assay [12] the target is T12, epitope mapping peptide #16 (human, not fully specified (C-terminus)).
T12 peptide: TVINPETGEQIQSWYK(Biotin)
Briefly: labelled AK1967 on biotinylated peptide #16 captured on avidin plate, chemiluminescence. How it is done: as §1

Assay [13] deals with T13, epitope mapping peptide #3 (human).
T13 peptide: Biotin-AFNFDQETVINPETGEQI
The experiment in a line: labelled AK1967 on biotinylated peptide #3 captured on avidin plate, chemiluminescence. How it is done:
as §1

Assay [14] addresses T14, epitope mapping peptide #4 (human).
T14 peptide: Biotin-AFNFDQETVINPETGEQ
Briefly: labelled AK1967 on biotinylated peptide #4 captured on avidin plate, chemiluminescence. Here is the method:
as §1

Assay [15] deals with T15, epitope mapping peptide #17 (human, not fully specified (C-terminus)).
T15 peptide: ETVINPETGEQIQSWYK(Biotin)
The experiment in a line: labelled AK1967 on biotinylated peptide #17 captured on avidin plate, chemiluminescence. Here is the method: as §1

Assay [16] has as its target T16, epitope mapping peptide #6 (human).
T16 peptide: Biotin-AFNFDQETVINPETG
The experiment in a line: labelled AK1967 on biotinylated peptide #6 captured on avidin plate, chemiluminescence. How it is done: as §1

In assay [17] the target is T17, epitope mapping peptide #2 (human).
T17 peptide: Biotin-AFNFDQETVINPETGEQIQ
Briefly: labelled AK1967 on biotinylated peptide #2 captured on avidin plate, chemiluminescence. How it is done:
as §1

B1: monoclonal anti-DPP3 antibody AK1967 (clone 1967 of SEQ ID No.: 2) (antibody, V domains shown)
VH: QVTLKESGPGILQPSQTLSLTCSFSGFSLSTSGMSVGWIRQPSGKGLEWLAHIWWNDNKSYNPALKSRLTISRDTSNNQVFLKIASVVTADTGTYFCARNYSYDYWGQGTTLTVSS
VL: DVVVTQTPLSLSVSLGDPASISCRSSRSLVHSIGSTYLHWYLQKPGQSPKLLIYKVSNRFSGVPDRFSGSGSGTDFTLKISRVEAEDLGVYFCSQSTHVPWTFGGGTKLEIK
notes: Murine monoclonal; A human IgG1 kappa backbone was used for chimerization and humanization; The Octet run captured 'AK1967' on anti-human Fc biosensors, so the format in that run is uncertain; also called Procizumab; PCZ
B1: the binding result in [1] is recorded as “binds”; in [2], “binds”; in assay [3] it was “no binding”; in assay [4] it was “no binding”; in [5], “no binding”; in [6], “no binding”. Besides, the binding result was “no binding” in assay [7]; “no binding” in [8]; “no binding” in [9]; “binds” in [10]; “binds” in [11]; “binds” in assay [12]. Besides, the binding result in [13], in [14], in assay [15], in [16] and in assay [17] was “binds” in each case.
